Experiment: yeast display, Sf9 membrane polyspecificity reagent, FACS + sequencing; frameworks hold sequencing errors
In short: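 After 36–48 hours of galactose induction, yeast (Saccharomyces cerevisiae BJ5465) displaying a synthetic nanobody library were stained at 4 °C for 1 hour with 10% biotinylated, detergent-solubilized Sf9 membrane reagent. Streptavidin microbeads enriched the stained cells before FACS sorting into low and high (top ~1%) gates on anti-HA and streptavidin fluorescence. Each clone's polyreactivity label reflects its gate of origin.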
In the case of “QVQLVESGGGLVQAGGSLRLSCAASGFIFVRYAMGWYRQAPGKEREFVAAISGGAGSTYYADSVKGRFTISRDNAKNTVYLQMNSLKPEDTAVYYCNRVRSLRYGYWGQGTQVTVSS”, the “polyreactivity (PSR sort gate)” value is reported as “high polyreactivity”.
With “QVQLVESGGGLVQAGGSLRLSCAASGRIFDPHAMGWYRPAPGKERELVASSTRRGGSTYYADSVKGRFTSSRDIAKNNVYLQMNSLKPEDTSVYYCARPNLLSGDYWGQGTQVTVSS” the “polyreactivity (PSR sort gate)” value was “high polyreactivity”.
For “QVQLQESGGGLVQVGGSLRLSCAASGNIFIYGIMGWNRQAPGKERELVASINLGGITNYADSVKGRFTISRDNAKNTVYLQMISLKPEDTAVYYCAAYVVTGQNYGYWGQGTQVTVSS”, the “polyreactivity (PSR sort gate)” value was “low polyreactivity”.
With “QVQLVESGGGLVQAGGSLRLSCAASGRIFRRYAMGWYRQAPGKERELVASISSGGSTNYADSVKGRFTISRDNAKNTVYLQMNSLKPEDTAVYYCAAAYPWQTRYSSPYYYWGQGTQVTVSS” the “polyreactivity (PSR sort gate)” value was “high polyreactivity”.
With “QVQLVESGGGLVQAGGSLRLSCAASGGTLKYYAMGLYRQAPGKERELVATISSRGGSTYYADSVKGRFTISRDNAKNTVYLQMNSLKPEDTAVYYCARRYWVQSRYPEMDYWGQGTQVTVSS” the “polyreactivity (PSR sort gate)” value was “high polyreactivity”.
In the case of “QVQLVESGGGLVQAGGSLRLSCAASGITLYINAMGWYRQAPGKERELVAAITRIGGRTYYADSVKGRFTISRDNAKNTVYLQMNSLKPEDTAVYYCNARTYNAFNYWGQGTQVTVSS”, the “polyreactivity (PSR sort gate)” value is reported as “high polyreactivity”.
In the case of “QVQLVESGGGLVQAGGSLRLSCAASGRIFTSYAMGWYRQAPGKERELVAAISSGGSTYYADSVKGRFTISRDNAKNTVYLQMNSLKPEDTAVYYCNAQSTRRYYYYWGQGTQVTVSS”, the “polyreactivity (PSR sort gate)” value is reported as “high polyreactivity”.
For “QVQLVESGGGLVQAGGSLRLRCAASGRTFYYNVMGWYRQAPGKERELVATITSGASTNYADSVKGRFTISRDNAKNTVYLQMNSLKPEDTAVYYCNTEYYPRWYGPYSYYDFDSWGQGTEVTVSS”, the “polyreactivity (PSR sort gate)” value was “low polyreactivity”.
With “QVQLVESGGGLVQAGGSLRLSCAASGSILESNVMGWYRQAPGKERELVASISSSGDSTYADSVKGRFTISRDNAKNTVYLQMNRLKPEDTAVYYCASDRLYWTYALYYWGQGTQVNVSS” the “polyreactivity (PSR sort gate)” value was “low polyreactivity”.
In the case of “QVQLVESGGGLVQAGGSLRLSCAASGSTFAINAMGWYRQAPGTERELVAAIRYSTGRTYYADSVKGRFTISRDNAKNTVYLQMNSLKPEDTAVYYCAALGFTKYGSRFDYWGQGTQVTVSS”, the “polyreactivity (PSR sort gate)” value is reported as “high polyreactivity”.
For “QVQLVESGGGLVQEGGSLRLSCAASGFIFTPNTMGWYRQAPGKERELVAAITTNGGRTYYADSVKGRFTISRDNAKNTVYLQMNSLKSEDTAVYYCAARYVSSFGLHAQVWSYYYCGQGTQVTVSS”, the “polyreactivity (PSR sort gate)” value was “high polyreactivity”.
With “QVQLVESGGGLVQAGGSLRLSCAASGFTFGYNDMGWYRQAPGKERELVAAIRLSDGGTYYADSVKGRFTISRDNAKNTVYLQMNSLKPEDTAVYYCAAPQDTYIPYDYWGQGTQVTVSS” the “polyreactivity (PSR sort gate)” value was “low polyreactivity”.
With “QVQLVESGGGLVQAGGSLRLSCAASGSIFSFYAMGWYRQAPGKERELVAAITSDGSTDYADSVKGRFTISRDNAKNTVYLQMNSLKPEDTAVYYCAADYIVRVVSRYRYGYEYWGQGTQVTVSL” the “polyreactivity (PSR sort gate)” value was “low polyreactivity”.
In the case of “QVQLVESGGGLVQAGGSLRLSCAAYGRTFNDYAMGWYRQAPGKERELVAAIDSDGDTNYADSVKGRFTISRDNAKNTVYLQMNSLKPEDTAVFYCNAVRLVVQEWYYYFTFDYWGQGTQVTVSS”, the “polyreactivity (PSR sort gate)” value is reported as “low polyreactivity”.
With “QVQLVESGGGLVQAGGSLRLSCAASGRIFDLNAMGWYRQAPGKERELVASITTSTGSTYYADSVKGRFTISRDNAKNTVYLQMNSLKPEDTAVYYCAADKSTHPFPSDPGYGYWGQGTQVTVSS” the “polyreactivity (PSR sort gate)” value was “low polyreactivity”.
For “QVQLVESGGGLVQAGGSLRLSSAASGNIFSDYAMGWNIQAPGKERELVAAISSGGNTNYADSVKGRFTISRDNAKNTVYLQMNSLKPEDTAVYYCAAVYNTTYTLLPEYIYDYWGHGTQVTVSS”, the “polyreactivity (PSR sort gate)” value was “low polyreactivity”.
With “QVQLVESGGGLVQAGGSLRLSCAASGRTSDGYAMGWYRQAPGKERELVAGITEGGGDTYYADSVKGRFTISRDNAKNTVYLQMNSLKPEDSAVYYCNAVEGSRLPYDYWGQGTQVTVSS” the “polyreactivity (PSR sort gate)” value was “low polyreactivity”.
With “QVQLVESGGGLVQAGGSLRLSCAASGFIFGTYVMGLYRTAPGKERELLAAISESGGRTYYADSVKGRFTISRDNAKNTVYIQMNSLIPEDTAVYYCAKVRHIRFHYYYGYQSYYYWGQGTQVTVSS” the “polyreactivity (PSR sort gate)” value was “high polyreactivity”.
With “QVQLVESGGGLVQAGGSLRLSCAASGIIFQAYAKGWYRQAPGKERELVAAISYSGGSTYYAESVKGRFTISRDNAKNNVDLQMNRLKPEVTAVYYCAAELYRYWFDMYYWGQGTQVTVSS” the “polyreactivity (PSR sort gate)” value was “low polyreactivity”.
For “QVQLVESGGGLVQAGGSLRLSCAASGFIFDQYAMGWYRQAPGKERELVAAISSGGRTYYADSVKGRFTISRDNAKNTVYLQMNSLKPEDTAVYYCAAKSWTDSRVTGYWGQGTQVTVSS”, the “polyreactivity (PSR sort gate)” value was “high polyreactivity”.
For “QDQLVESGGGFVQAGGSLRLSCAASGLTFWYYAMGWYRQATGKEVELVAANDWSGASTYYADSVKGRFTISRDNAKNTVYLQMISLQPEDTAVYYCNTVYYIGDDYWGQGTQVTVSS”, the “polyreactivity (PSR sort gate)” value was “high polyreactivity”.
In the case of “QVQLVESGGGLVQAGGSLRLSCAASGIIFTNYAMGWYRQAPGKERELVAAISSSSGTTYYADSVKGRFTISRDNAKNTDYLQMNSLKPEDTALYYCNAGRSWRRTHYDYWVQGTQVTVSS”, the “polyreactivity (PSR sort gate)” value is reported as “high polyreactivity”.
With “QDQLVESGGGLVQAGGSLGLRCAATGSTFTYYTMGWYRQAAGKERELVAAISRTTGSTYYADSVKGRFTISRDNAKNTVYLQMNSLKPEDTAVYYCAAQSYKILLYFIGTAGDGYWGQGTQVTVSS” the “polyreactivity (PSR sort gate)” value was “low polyreactivity”.
In the case of “QVQLVESGGGLVQAGGSLRLSCAASGFIFYRYARGWYRQAPGQERELVAAITTSGARTYYADSVKGRFTISRDNAKNTVYLLMNSLKPEDTAGYSCAASPTPRVKMDYWGQGTQVTVSS”, the “polyreactivity (PSR sort gate)” value is reported as “low polyreactivity”.
With “QVQLVESGGGLVQAGGSLRLSCAASGRTFKHYAMGWYRPAPGKERELVATITNTGGRTNYADSVKGRFTISRDNAKNTVYLQMYSLKPEDTAVYYCNRVNDYYRPGGRPFGIFDYWGQGTQVTVSS” the “polyreactivity (PSR sort gate)” value was “low polyreactivity”.
In the case of “QVQLVESGGGLVQAGGSLRLSCAASGNTFRAYAMGWYRQAPGKERELVATITWSGGITDYADSVKGRFTISRDNAKNTVSLQMNSLKPEDTAVYDCAARSYRWWNFNYWGQGTQVTVSS”, the “polyreactivity (PSR sort gate)” value is reported as “high polyreactivity”.
For “QVQLVESGGGLVQAGGSLRLSCAASGYIFDFYDMGWYRQAPGKERELVAAITSGGSTNYADSVKGRFTISRDNAKNTVYLQMNSLKPEDTAVYYCAASFVGHIYWGARVPYYYNHDYWGQGTQVTVSS”, the “polyreactivity (PSR sort gate)” value was “high polyreactivity”.
With “QVQLVESGGGLVQAGGSLRLSCAASGSTFPAYAMGWYRQAPGKERELVAGISSGGRTYYADSVKGRFTISRDNAKNTVYLQMNSLKPEDTAVYYCAAFRFYWQRPDRYYYWGQGTQVTVSS” the “polyreactivity (PSR sort gate)” value was “high polyreactivity”.
For “QVQLVESGGGLVQAGGSLRLSCAASGYSFKSYVMGWYSQAPGKERELVAAITWSGGSTYYADSVKGRFTLSRDNAKNTVFLQMHSLKPEDTAVYYCAAYPRRYRTTYDYWGQGTQVTVSS”, the “polyreactivity (PSR sort gate)” value was “high polyreactivity”.
For “QVQLVESGGGIVQAGGSLRLSCAASGSTFYVYAMGWYRQAPGKERELVAAITVRGGSTYYADSVKGRFTISRDNAKNTVYLQMNSLKPEDTSVDYCNAEGTYGYWRSYNYWGQGTQVTVSS”, the “polyreactivity (PSR sort gate)” value was “high polyreactivity”.
With “QVQLVESGGGLVQAGGSLRLSCAASGYTFGVYVMGWYRQAPGKERELVAAISGSTYYADSVKGRFTISRDNAKNTVYLQMNSLKPEDTAVYYCNADYYRSVLIIGVYEYDYWGQGTHVTVSS” the “polyreactivity (PSR sort gate)” value was “low polyreactivity”.
In the case of “QVQLVESGGGLVQAGGSLRLSCAASGSIFRFNAMGWYRQAPGKERELVAAISASGGSTYYADSVKGRFTISRDNAKNTVYLQMNSLKPEDTAVYYCAARRTAGAYYGYNYWGQGTQVTVSS”, the “polyreactivity (PSR sort gate)” value is reported as “high polyreactivity”.
In the case of “QVQLVESGGGLVQAGGSLRLSCAASGRIFARYTMGWYRQAPGKERDLVAAISRGGGTNYADSVKGRFTISRDNAKNTVYLQMNSLKPEDTAVSYCAADVSLVYPYSYRYYYWGQGTQVTVSS”, the “polyreactivity (PSR sort gate)” value is reported as “low polyreactivity”.
In the case of “QVQLVESGGGLVQAGGSLRLSCAASGLTFSLNAMGGYRQAPGKERELVAAIRGSGGSTYYADSVKGRFTISRDNAKNTVYLQMNSLKPEDTAVYYCNADQLVWQRYGVLYEYDYWGQGTQVTVSS”, the “polyreactivity (PSR sort gate)” value is reported as “high polyreactivity”.
For “QVQLVESGGGLVQAGGSLRLSCAASGRIFWYYAMGWYRPAPGKERELVATISYGGGNTYYADSVKGRFTISRDNAKNTVYLQMNSLKPEDTAVYYCARVPYAYLPYKPFQQYSYDYWGQGTQVTVSS”, the “polyreactivity (PSR sort gate)” value was “high polyreactivity”.
With “QVQLVESGGGLVQAGGSLRLSCAASGIIFVYYVMGWYRQAPGKERELVASIDGSGGSTNYADSVKGRFTISRDNAKNTVYLQMNSLKPEDTAVYYCNADNILYWSTLDYLGQGTQVTVSS” the “polyreactivity (PSR sort gate)” value was “low polyreactivity”.
In the case of “QVQLVESGGVLVQAGGSLRLSCAASGSIFERYDMGWYRQAPGKERELVAAITSAGITYYADSVKGRFTISRDNAKNNVYLQMNSLKPEDTAVYYCAAQGRRGAPYRHVNEGDYWGQGTQVTVSS”, the “polyreactivity (PSR sort gate)” value is reported as “low polyreactivity”.
For “QVQLVESGGGLVQAGGSLRLSCAASGFIFYQYAMGWYRQAPGKERELVAVISRTGSTSYADSVKGRFTISRDNAKNTVYLQMNSLKPEDTAVYYCAARYYFYDYWGQGSQVTVSS”, the “polyreactivity (PSR sort gate)” value was “high polyreactivity”.
In the case of “QVQLVESGGGLVQAGGSLRLSCAASGSIFYENNMGWYRQAPGKEREFVAAISRSGGSTYYADSVKRRFTISRDNAKNTVYLQLNSLKPEDTAVYYCAARSRPGYAVYYWGQGTQVTVSS”, the “polyreactivity (PSR sort gate)” value is reported as “high polyreactivity”.
With “QVQLVESGGRLRQAGGSLRLSCAASGSTFVSYAMGWYRQAPGKERELVAAISTSGGRSYYADSVKGRFTISRDNAKNTVYLQMNSLKREDTAVYYCAAEHYQRWWPYWYWPYYWGQGTQVTVSS” the “polyreactivity (PSR sort gate)” value was “high polyreactivity”.
With “QVQLVESGGVLVQAGGSLRLSCAPSGRIFNYYAMGWYRQAPGKERELVAAISSSGGRTYYADSVKGRFTISRDNAKNTVYLQMNSLKPEDTAVYYCAAYDSLRYSTYDYWGQGTQVTVSS” the “polyreactivity (PSR sort gate)” value was “high polyreactivity”.
With “QVQLVESGGGLVQAGGSLRLSCAASGSTFPFYAMGWYRQAPGKERELVAAITSGGSTYADSVKGRFTISRDNAKNTVYLQMNSLNPEDTAVYYCAASWPRWWRFGYWGQGTQVTVSS” the “polyreactivity (PSR sort gate)” value was “low polyreactivity”.
With “QVQLVESGGGLVQAGGSLRLSCAASGRTFTYNVMGWYRQAPGKERELVAAITSGGSTYYADSVKGRFTISRDNAKNTVYLQMNSLKPEDTAVYYGAARGYSYKWDNRYDYWGQGTQVTVSS” the “polyreactivity (PSR sort gate)” value was “high polyreactivity”.

Reference: the nanobody polyreactivity screen of Harvey et al. (2022)
